Legend:
Arpp21 61-260 = Arpp21 61-260 (UniProt Q9DCB4 61-260); assay: ITC; 25 C, TCEP; panel label, Methods and text say 61-260, legend says 130-260; 20 mM sodium phosphate pH 6.5, 300 mM NaCl, 2 mM DTT (TCEP instead of DTT for ITC); NMR 298 K, 10% D2O, 50 uM protein; ITC 25 C, 20 uM protein, 200 uM RNA in syringe; settings: protein: recombinant; tags: His-GB1 tag, TEV-cleaved
Arpp21 1-330 = Arpp21 1-330 (UniProt Q9DCB4 1-330); assay: ITC; 25 C, TCEP; 20 mM sodium phosphate pH 6.5, 300 mM NaCl, 2 mM DTT (TCEP instead of DTT for ITC); NMR 298 K, 10% D2O, 50 uM protein; ITC 25 C, 20 uM protein, 200 uM RNA in syringe; settings: protein: recombinant; tags: His-GB1 tag, TEV-cleaved
Chain of Arpp21 1-330 (Q9DCB4 1-330): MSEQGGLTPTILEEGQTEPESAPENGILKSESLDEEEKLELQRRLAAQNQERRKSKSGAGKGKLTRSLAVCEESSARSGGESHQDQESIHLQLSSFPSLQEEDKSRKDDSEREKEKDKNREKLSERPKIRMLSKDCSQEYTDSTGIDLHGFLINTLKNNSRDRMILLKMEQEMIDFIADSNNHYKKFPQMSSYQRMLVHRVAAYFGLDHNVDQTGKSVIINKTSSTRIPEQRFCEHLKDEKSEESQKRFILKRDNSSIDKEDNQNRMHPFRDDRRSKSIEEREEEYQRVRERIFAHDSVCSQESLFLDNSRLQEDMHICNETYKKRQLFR

Chain of Arpp21 61-260 (Q9DCB4 61-260): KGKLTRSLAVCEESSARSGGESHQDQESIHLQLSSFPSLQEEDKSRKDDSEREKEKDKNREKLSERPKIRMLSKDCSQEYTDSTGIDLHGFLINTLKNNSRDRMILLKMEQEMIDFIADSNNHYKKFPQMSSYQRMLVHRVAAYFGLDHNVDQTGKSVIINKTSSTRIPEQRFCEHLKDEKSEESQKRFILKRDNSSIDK

B1: U9 RNA (ssRNA)
RNA: UUUUUUUUU
Kd (Arpp21 61-260): 4.8 µM | Kd (Arpp21 1-330): 4.7 µM

Reference: publication PMC10928157, “The thymocyte-specific RNA-binding protein Arpp21 provides TCR repertoire diversity by binding to the 3’-UTR and promoting Rag1 mRNA expression”
